In the RNAGym collection of RNA variant scans (doi:10.7554/elife.90254) one finds self-cleavage data, which are given here for 167 variants.

The labels stand for the following.
B1: OR4K15 (parent)
chain: GUUAACGGUCAUAGGCCAUGGAAACUAGGAGCACCAUUUCGCUGCCAGUGAAGAAAUGAACAAAGAAAAUCUGGGCCAGGCAGGCAUCAAAAGAAAUAGUCUUGCGCUCAACCAGAAAGUCUGUAAUCAUUUUAAGGGUA

In the data set the parent is B1. Description: self-cleavage, relative activity (ratio to wild type); higher = more cleavage; in vitro, sequencing; the parent is a self-cleaving ribozyme.
In the case of A78G A126C, the self-cleavage stood at 0.09.

As for G79U U87C, the self-cleavage came out at 0.11. On to G79C U120A, for which the self-cleavage was 0.04. For G73A A92G, the self-cleavage is 0.2. In the case of C81U A94G it was 0.41; in that of U72C U124C, 0.17. Regarding C77A A89G, the self-cleavage came to 0.61. In the case of A78U A135G it was 0.3; in that of G74A A95G, 0.35; in that of C76A A96G, 0.19. The value for G79C A116G was 0.03; that for G79A U132C was 0.1. The value for A82C A89G was 0.16. As for G74C A96G, the self-cleavage came out at 0.29. For the variant A82C A90G, the self-cleavage is 0.15. Turning to U72C G136A, the self-cleavage stood at 0.7. For the variant A78G A89G, the self-cleavage stood at 0.18.

For the variant C81A G104A, the self-cleavage turned out to be 0.67.

G74A A94C: the self-cleavage worked out at 0.06. In the case of G74A A94U it was 0.19; in that of G75A A91G, 0.14; in that of A78C U133C, 0.24. On to G74A A82G, for which the self-cleavage worked out at 0.26. As for A78U A111G, the self-cleavage is 0.02.

For the variant G73U A78U, the self-cleavage came to 0.15. On to G80A U108C, for which the self-cleavage was determined as 0.01. As for G73U A92G, the self-cleavage amounted to 0.16. For the variant C76A A111U, the self-cleavage was found to be 0.03.

With G79C U97A, the self-cleavage was 0.05. For the variant G75A A135G, the self-cleavage turned out to be 0.04. The value for C76A U131C was 0.08. For A82C C105U, the self-cleavage is 0.02. Turning to C81U U131C, the self-cleavage came out at 0.37. Turning to A78U U87C, the self-cleavage is 0.31. In the case of A78C G106A it was 0.03. Take C77U U87C: the self-cleavage was determined as 1.31. With G80A A116G, the self-cleavage turned out to be 0.03. For the variant G74A U122A, the self-cleavage amounted to 0.18. The value for A78U U102C was 1.21; that for G75A A82G was 0.12. A82C C109U: the self-cleavage came out at 0.07. In the case of G75C A129G, the self-cleavage came out at 0.07. In the case of U72C A118G, the self-cleavage came out at 0.1.

Turning to G73A A117G, the self-cleavage stood at 0.15. In the case of C81U U122C, the self-cleavage is 0.29. Turning to A78U A91U, the self-cleavage worked out at 0.8. In the case of G73A C121G it was 0.45; in that of U72C G106A, 0.02. The value for G80A A82C was 0.14; that for C77U U100C was 2.13. In the case of A78C A96G it was 0.27; in that of U72G A96G, 0.07; in that of U72C A98G, 0.03.

Turning to U72C A98U, the self-cleavage came out at 0.3. As for G73A A94G, the self-cleavage is 0.19. As to A78G U122A, the self-cleavage stood at 0.13. With G75A U87C, the self-cleavage was found to be 0.14.

On to A82C G119A, for which the self-cleavage was 0.17. With G74A A140U, the self-cleavage came to 0.22. Regarding G74C A110U, the self-cleavage is 0.14.

Take A78U U131C: the self-cleavage is 0.17. The value for U72G A95G was 0.43; that for U72G A95U was 0.12; that for A78G A117G was 0.22. Consider G73A U122A, for which the self-cleavage came out at 0.15. Take U72G A78G: the self-cleavage is 0.39. In the case of U72C U102A, the self-cleavage is 0.07.

On to C77U A89G, for which the self-cleavage stood at 2.1.

Consider G75C A126C, for which the self-cleavage was found to be 0.09. In the case of G75C A126G it was 0.12; in that of C77U U120C, 1.21; in that of A78G U102C, 0.31. In the case of A78G U108C, the self-cleavage is 0.01. Consider A78G U108A, for which the self-cleavage was 0.03. Consider U72C C105A, for which the self-cleavage came to 0.03. Consider U72C U131A, for which the self-cleavage is 0.1. On to U72C U131C, for which the self-cleavage amounted to 0.16.

Turning to C76G A96U, the self-cleavage was 0.09. With A82C A114G, the self-cleavage was 0.05. Regarding A82C A114U, the self-cleavage came out at 0.02. With C77U G79U, the self-cleavage is 0.13. Regarding G79U A116U, the self-cleavage is 0.03. For the variant A78G A94G, the self-cleavage turned out to be 0.19. Regarding A78G U87C, the self-cleavage is 0.05.

Turning to A78G U87A, the self-cleavage was 0.08. G74A U124A: the self-cleavage was 0.1. In the case of A78G A135G it was 0.19; in that of A78U A89U, 0.35. G79A: the self-cleavage amounted to 0.14. The value for G79C was 0.08; that for G79U was 0.06. Regarding U72C G138A, the self-cleavage was found to be 0.49.

Take A78U A110C: the self-cleavage was 0.05. A78U A110G: the self-cleavage came to 0.05.

On to C77A A96G, for which the self-cleavage stood at 1. Consider G75A A78U, for which the self-cleavage was 0.09. For A78C U87C, the self-cleavage was determined as 0.27. For the variant G73A G136U, the self-cleavage came to 0.22. Take G74U A116U: the self-cleavage was determined as 0.03. As to C81U A134G, the self-cleavage worked out at 0.53. With A78U U103C, the self-cleavage came to 0.06.

Regarding G73U A118G, the self-cleavage stood at 0.02. Turning to U72C C128A, the self-cleavage was 0.13. With A78G A116G, the self-cleavage amounted to 0.15. Turning to U72C A117G, the self-cleavage is 0.22. As for U72C A117C, the self-cleavage is 0.08. For C81A A86G, the self-cleavage stood at 0.16. The value for A78C U103C was 0.14; that for A78G G138A was 0.2. A78U A134G: the self-cleavage is 0.31. With C77U, the self-cleavage is 1.54. Turning to C77A, the self-cleavage came to 0.76. On to G74U G119A, for which the self-cleavage was 0.19. With G75C A117G, the self-cleavage was 0.15. Turning to C76A A117G, the self-cleavage turned out to be 0.18. The value for A78U A117U was 0.3. Regarding A78U A117G, the self-cleavage was 0.36. Take A78G A98C: the self-cleavage turned out to be 0.27. On to A78G A98U, for which the self-cleavage is 0.39. The value for A78G A98G was 0.08; that for G75A U120C was 0.02. Regarding A78U U97C, the self-cleavage is 0.36. In the case of A78C A116G, the self-cleavage came to 0.13.

As to G75U A117G, the self-cleavage came to 0.15. With A78C U130C, the self-cleavage amounted to 0.21. For G73U A110G, the self-cleavage was determined as 0.03.

Take G79U A129G: the self-cleavage was determined as 0.04. In the case of U72C G80A it was 0.38; in that of G73U C105U, 0.01; in that of C77A A78G, 0.53. The value for G75A G138A was 0.13. In the case of G74A U87A, the self-cleavage is 0.22.

G75A A125G: the self-cleavage is 0.03. Take G74A A125G: the self-cleavage is 0.05. As for G75C A110G, the self-cleavage was determined as 0.02. Take G73U A95G: the self-cleavage was 0.17. With A78C U122C, the self-cleavage came out at 0.1.

Turning to U72C G83A, the self-cleavage was 0.08. As to A82G, the self-cleavage worked out at 0.4.

Turning to A82C, the self-cleavage is 0.07. On to G74U C121A, for which the self-cleavage was determined as 0.36. In the case of A78G G80A, the self-cleavage worked out at 0.13.

C76A A90G: the self-cleavage stood at 0.14. In the case of G75A C105U it was 0.01. The value for A78C U108A was 0.01; that for G73U U108C was 0.02. For the variant G74U A114U, the self-cleavage was determined as 0.04. With A82C A98G, the self-cleavage amounted to 0.09. Consider U72C C107U, for which the self-cleavage came out at 0.01.

With G80A U102C, the self-cleavage is 0.42. As to A78G G106A, the self-cleavage was determined as 0.03. In the case of A78U U130C it was 0.2; in that of A78C A91C, 0.19; in that of C76U C105U, 0.03.

On to A82C A135G, for which the self-cleavage is 0.15. Take C77U A98G: the self-cleavage was 0.88.

In the case of G73U A86G, the self-cleavage came out at 0.17. The value for G74A U103C was 0.08; that for G74A C76U was 0.11; that for G79A U139C was 0.11.

Turning to G80U A86U, the self-cleavage came to 0.23. G79U U102C: the self-cleavage was found to be 0.06. For G75U A126G, the self-cleavage was found to be 0.08. In the case of A78G A96U it was 0.4; in that of G73A A82G, 0.22; in that of G79U U132C, 0.09.

Take A82G A86U: the self-cleavage turned out to be 0.88.
